B1: POU domain, class 4, transcription factor 3, residues 185 to 256; numbered along this chain, Q15319 (parent)
chain: RELEAFAERFKQRRIKLGVTQADVGAALANLKIPGVGSLSQSTICRFESLTLSHNNMIALKPVLQAWLEEAE

± gives the uncertainty stated by the source.

The data set covers variants of B1. The data set can be described thus: abundance fitness (aPCA) (normalised: wild type 0, dead -1); higher = more abundant; growth selection in yeast, the domain comes from the species named. The following applies: Homo sapiens.
Turning to RELEAFAERFKQRRIKLGVTQADVGAALANLKIPGVGSLIQSTICRFESLTLSHNNMIALKPVLQAWLEEAE [S40I], the abundance fitness was -0.664 ± 0.38.
With RELEAFAERFKQRRIKLGVTQADVGAAFANLKIPGVGSLSQSTICRFESLTLSHNNMIALKPVLQAWLEEAE [L28F] the figure was -0.239 ± 0.2.
As for RELEWFAERFKQRRIKLGVTQADVGAALANLKIPGVGSLSQSTICRFESLTLSHNNMIALKPVLQAWLEEAE [A5W], the figure is -0.379 ± 0.14.
As for RELEAFAERFKQRRIKLGVTQADVGAALANLKIPGVGSLSQSTITRFESLTLSHNNMIALKPVLQAWLEEAE [C45T], the abundance fitness is 0.012 ± 0.064.
Turning to RELEAFAERFKQRRIKLGVTQADVGAALANLKIPGVGSLSQSTICRFESLTLGHNNMIALKPVLQAWLEEAE [S53G], the abundance fitness was -0.061 ± 0.046.
Turning to RELEAFAERFKQRRIKLGVTQADVGAALANLKIPGVGSLSQSTICRFESLTLAHNNMIALKPVLQAWLEEAE [S53A], the abundance fitness stood at 0.025 ± 0.071.
As for RELEAFAERFKQRRIKLGVTQADVGAALANLKIPGVGSLSQSTICAFESLTLSHNNMIALKPVLQAWLEEAE [R46A], the figure is 0.031 ± 0.061; as for RELEAFAERFKQRRIKLGVTQADVGAALANLKIPGVGSLSQSTICWFESLTLSHNNMIALKPVLQAWLEEAE [R46W], -0.334 ± 0.14.
As for RELEAFAERFKQRRIKLGVTQADVGAALANLKSPGVGSLSQSTICRFESLTLSHNNMIALKPVLQAWLEEAE [I33S], the abundance fitness was -0.764 ± 0.19.
As to RELEAFAERFKQRRNKLGVTQADVGAALANLKIPGVGSLSQSTICRFESLTLSHNNMIALKPVLQAWLEEAE [I15N], the abundance fitness is -0.147 ± 0.13.
As for RELEAFAERFKQRRMKLGVTQADVGAALANLKIPGVGSLSQSTICRFESLTLSHNNMIALKPVLQAWLEEAE [I15M], the figure is 0.024 ± 0.061.
As for RELEAFAERFIQRRIKLGVTQADVGAALANLKIPGVGSLSQSTICRFESLTLSHNNMIALKPVLQAWLEEAE [K11I], the figure is -0.123 ± 0.055; as for RELEAFAERFFQRRIKLGVTQADVGAALANLKIPGVGSLSQSTICRFESLTLSHNNMIALKPVLQAWLEEAE [K11F], -0.478 ± 0.063.
For RELEAFAERFKQRRIKLGVTQADVGAALAMLKIPGVGSLSQSTICRFESLTLSHNNMIALKPVLQAWLEEAE [N30M], the abundance fitness was -0.239 ± 0.12.
Consider RELEAFANRFKQRRIKLGVTQADVGAALANLKIPGVGSLSQSTICRFESLTLSHNNMIALKPVLQAWLEEAE [E8N], for which the abundance fitness was -0.434 ± 0.35.
With RELEAFAERFKQRRIKLGVTQADVGAALANLKIPGVGSLSQSTICRFESLTLSHNNMIALKRVLQAWLEEAE [P62R], the abundance fitness is -0.376 ± 0.036.
For RELEAFAERFKQRRIKLGVTQADVGAALANLKIPGVGSLSQSTICRFESLTLSHNNMIALKFVLQAWLEEAE [P62F], the abundance fitness is -0.461 ± 0.058.
RELEAFAERFKQRRIKLGVTQADVGAALANLKIPGVGSLSQSTICRFESLTLSHNNMIALKSVLQAWLEEAE [P62S]: the abundance fitness is -0.188 ± 0.031.
On to RELEAFAERFKQRRIKLGVTQADVGAALANLKIPGVGSLSQSTICRFESLTLSHNNMIALKAVLQAWLEEAE [P62A], for which the abundance fitness is -0.376 ± 0.043.
As for RELEAFAERFKQRRIKLGVTQADVGAALANLKIPGVGSPSQSTICRFESLTLSHNNMIALKPVLQAWLEEAE [L39P], the abundance fitness was determined as 0.054 ± 0.3.
On to RELEAFAERFKQRRIKLGVTQADVGAALANLKIPGVGSLSQSTICRFESLTLSHNNMIALKPVLQAWVEEAE [L68V], for which the abundance fitness was -0.13 ± 0.026.
Consider RELEAFAERFKQRRIKLGVTQADVGAALANLKIPGVGSLSQSTICRFESLTLSHNNMIALKPVLQAWKEEAE [L68K], for which the abundance fitness was -0.901 ± 0.054.
As for RELEAFAERFKQRRIKLGQTQADVGAALANLKIPGVGSLSQSTICRFESLTLSHNNMIALKPVLQAWLEEAE [V19Q], the figure is -0.151 ± 0.055; as for DELEAFAERFKQRRIKLGVTQADVGAALANLKIPGVGSLSQSTICRFESLTLSHNNMIALKPVLQAWLEEAE [R1D], -0.419 ± 0.17.
As for SELEAFAERFKQRRIKLGVTQADVGAALANLKIPGVGSLSQSTICRFESLTLSHNNMIALKPVLQAWLEEAE [R1S], the figure is -0.109 ± 0.084; as for RELEAFAERFKQRRIKLGVTQADVGAALANLKIPGVGSLSQSTICRFESLTLSHNNMIALKPVLQAWLKEAE [E69K], -0.041 ± 0.05; as for RELEAFAERFKQRRIKLQVTQADVGAALANLKIPGVGSLSQSTICRFESLTLSHNNMIALKPVLQAWLEEAE [G18Q], -0.193 ± 0.12.
As to RELEAFAERFKQRRIKLEVTQADVGAALANLKIPGVGSLSQSTICRFESLTLSHNNMIALKPVLQAWLEEAE [G18E], the abundance fitness was -0.514 ± 0.14.
As for RELEAFAERFKQRRIKLRVTQADVGAALANLKIPGVGSLSQSTICRFESLTLSHNNMIALKPVLQAWLEEAE [G18R], the figure is -0.249 ± 0.11; as for RELEAFAERFKQRRIKLLVTQADVGAALANLKIPGVGSLSQSTICRFESLTLSHNNMIALKPVLQAWLEEAE [G18L], -0.703 ± 0.064; as for RELEAFAERFKQRRIKLGVTQADVGAALANLKIFGVGSLSQSTICRFESLTLSHNNMIALKPVLQAWLEEAE [P34F], -0.474 ± 0.1.
With RELEAFAERFKQRRIVLGVTQADVGAALANLKIPGVGSLSQSTICRFESLTLSHNNMIALKPVLQAWLEEAE [K16V] the figure was -0.099 ± 0.042.
Turning to RELEAFAERFKQRRIKLGVTQADVGAALANLKIPGVGSLSQSTICRFESLTLSHNNMIALKPVLQLWLEEAE [A66L], the abundance fitness is -0.048 ± 0.33.
In the case of RELEAFAERFKQRRIKLGVTQADVGAALANLKIPGVGSLSQSTICRFESLTLSHNNMIALKPVLQDWLEEAE [A66D], the abundance fitness is -0.162 ± 0.24.
With RELEAFAERFKQRRIKLGVTQADVGCALANLKIPGVGSLSQSTICRFESLTLSHNNMIALKPVLQAWLEEAE [A26C] the figure was -0.08 ± 0.04; with RELEAFAERFKQRRIKLGVTQADVGAALANLKIPGVKSLSQSTICRFESLTLSHNNMIALKPVLQAWLEEAE [G37K], -0.018 ± 0.036.
As for RELEAFAERFKQRRIKLGVTQTDVGAALANLKIPGVGSLSQSTICRFESLTLSHNNMIALKPVLQAWLEEAE [A22T], the figure is -0.207 ± 0.054.

The record behind these values is the Human Domainome abundance scans (Beltran et al. 2025).
